# In the supplement of paper PMC10065799, “High-throughput profiling of sequence recognition by tyrosine kinases and SH2 domains using bacterial peptide display” (eLife, 2023):
# Biological target: Hck (UniProt P08631)
# Assay: phosphorylation enrichment, bacterial display (enrichment ratio); higher = better substrate or ligand; peptides without Tyr show the background
# 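Further: 11-residue human phosphosite peptides and single-mutation variants displayed on the E. coli surface, counted by deep sequencing, each peptide's frequency after selection divided by its frequency in the unselected input library; frequency after pTyr selection over input frequency; kinase dosed for 20-30% of maximal phosphorylation in three min.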
# Hck, sequence (P08631 whole entry, looked up): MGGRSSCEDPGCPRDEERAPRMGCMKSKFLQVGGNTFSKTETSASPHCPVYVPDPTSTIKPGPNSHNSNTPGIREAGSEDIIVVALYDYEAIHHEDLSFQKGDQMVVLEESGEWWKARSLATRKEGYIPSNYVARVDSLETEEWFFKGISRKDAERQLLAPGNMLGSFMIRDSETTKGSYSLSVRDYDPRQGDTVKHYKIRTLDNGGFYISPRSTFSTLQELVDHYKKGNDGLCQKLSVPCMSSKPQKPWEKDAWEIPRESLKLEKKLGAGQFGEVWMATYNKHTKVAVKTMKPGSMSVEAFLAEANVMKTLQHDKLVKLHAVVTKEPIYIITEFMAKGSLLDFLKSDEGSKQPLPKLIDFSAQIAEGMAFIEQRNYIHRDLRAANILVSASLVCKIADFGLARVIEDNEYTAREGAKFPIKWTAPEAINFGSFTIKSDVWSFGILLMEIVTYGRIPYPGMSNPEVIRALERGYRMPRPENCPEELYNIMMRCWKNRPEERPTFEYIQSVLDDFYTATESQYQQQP
row,Sequence,phosphorylation enrichment
1,PLEGKYEWQEV [CDKN1B_Y74],0.483
2,AKVKPYVNGTS [IBTK_Y1064],0.402
3,NLTVNYKKNLT [SQOR_Y259_I264T],0.539
4,LHAALYERKLL [TTLL5_Y542],0.772
5,TGSFTYEAVEL [MTMR14_Y462],1.78
6,VHNLDYYKKTT [FGFR3_Y647],0.408
7,HLELNYKEDEF [MME_Y502_Y497H_YF],0.565
8,ATPSQYMTFLH [DYNC2H1_Y2872_R2871Q],2.29
9,FNVLQYVVPEV [EIF3A_Y382],0.635
10,LDLSFYHTSSS [EMD_Y182_P183H_YF],0.575
11,PLFGEYFTLQI [TP53_Y327_D324Y_YF],4.51
12,DMGAQYAAASP [ARID1B_Y483],0.462
13,AAVDTYCRHNY [HLA-DRB1_Y107],0.531
14,IRKDLYANNVM [ACTA1_Y296],0.572
15,SPPILYSFFLD [FCRL6_Y239_YF],2.08
16,SARFRYLVAEK [LDHB_Y173_M175V],0.458
17,CEHRGHLYLAI [TEK_Y897_Y897H],0.417

row,Sequence,phosphorylation enrichment
1,MSFDRYMAICH [OR2A5_Y123_YF],0.527
2,DYYDLYGGQKF [PTPN11_Y66_E69Q],8.28
3,YIGVTYKNEED [PDGFRA_Y993],0.509
4,EKQLLYLENKT [FRK_Y132_S133L],0.459
5,NIQKKYYRAIL [CHD7_Y1217],0.355
6,AGQEDYDRLRS [RHOA_Y66_P71S],0.638
7,WCSNDYLGMSR [ALAS2_Y199],0.781
8,TVLWRYTGTRP [UGT1A1_Y337],0.557
9,FQGGTYSKAST [FGG_Y380_YF],0.308
10,SAGSSYSISGI [PAX5_Y179],0.386
11,ICGVSYDEFRF [CFTR_Y512_F508C_YF],0.842
12,VTAVAYRLAEQ [HK1_Y461],0.475
13,RPPELYALMSD [ZAP70_Y569_C564R],2.17
14,KRAIGHFSATS [FAM120A_Y327_Y327H_YF],0.397
15,CTTIDYNFMCN [TP53_Y234_H233D_YF],0.528
16,KLVQLYVVCTK [BTK_Y461_G462V],0.528

# Tested on: AncSZ
# Assay: as above
row,Sequence,phosphorylation enrichment
1,PLEGKYEWQEV [CDKN1B_Y74],1.29
2,AKVKPYVNGTS [IBTK_Y1064],0.606
3,NLTVNYKKNLT [SQOR_Y259_I264T],0.883
4,LHAALYERKLL [TTLL5_Y542],1.43
5,TGSFTYEAVEL [MTMR14_Y462],1.77
6,VHNLDYYKKTT [FGFR3_Y647],0.527
7,HLELNYKEDEF [MME_Y502_Y497H_YF],0.993
8,ATPSQYMTFLH [DYNC2H1_Y2872_R2871Q],0.903
9,FNVLQYVVPEV [EIF3A_Y382],1.88
10,LDLSFYHTSSS [EMD_Y182_P183H_YF],1.21
11,PLFGEYFTLQI [TP53_Y327_D324Y_YF],4.62
12,DMGAQYAAASP [ARID1B_Y483],0.647
13,AAVDTYCRHNY [HLA-DRB1_Y107],0.871
14,IRKDLYANNVM [ACTA1_Y296],0.559
15,SPPILYSFFLD [FCRL6_Y239_YF],1.19
16,SARFRYLVAEK [LDHB_Y173_M175V],0.698
17,CEHRGHLYLAI [TEK_Y897_Y897H],1.07

row,Sequence,phosphorylation enrichment
1,MSFDRYMAICH [OR2A5_Y123_YF],0.897
2,DYYDLYGGQKF [PTPN11_Y66_E69Q],2.69
3,YIGVTYKNEED [PDGFRA_Y993],1
4,EKQLLYLENKT [FRK_Y132_S133L],0.712
5,NIQKKYYRAIL [CHD7_Y1217],0.502
6,AGQEDYDRLRS [RHOA_Y66_P71S],0.96
7,WCSNDYLGMSR [ALAS2_Y199],1.85
8,TVLWRYTGTRP [UGT1A1_Y337],1.17
9,FQGGTYSKAST [FGG_Y380_YF],0.448
10,SAGSSYSISGI [PAX5_Y179],0.53
11,ICGVSYDEFRF [CFTR_Y512_F508C_YF],1.51
12,VTAVAYRLAEQ [HK1_Y461],0.633
13,RPPELYALMSD [ZAP70_Y569_C564R],2.05
14,KRAIGHFSATS [FAM120A_Y327_Y327H_YF],0.423
15,CTTIDYNFMCN [TP53_Y234_H233D_YF],1.27
16,KLVQLYVVCTK [BTK_Y461_G462V],1.3

# Biological target: Fyn (UniProt P06241)
# Sequence (P06241 whole entry, looked up): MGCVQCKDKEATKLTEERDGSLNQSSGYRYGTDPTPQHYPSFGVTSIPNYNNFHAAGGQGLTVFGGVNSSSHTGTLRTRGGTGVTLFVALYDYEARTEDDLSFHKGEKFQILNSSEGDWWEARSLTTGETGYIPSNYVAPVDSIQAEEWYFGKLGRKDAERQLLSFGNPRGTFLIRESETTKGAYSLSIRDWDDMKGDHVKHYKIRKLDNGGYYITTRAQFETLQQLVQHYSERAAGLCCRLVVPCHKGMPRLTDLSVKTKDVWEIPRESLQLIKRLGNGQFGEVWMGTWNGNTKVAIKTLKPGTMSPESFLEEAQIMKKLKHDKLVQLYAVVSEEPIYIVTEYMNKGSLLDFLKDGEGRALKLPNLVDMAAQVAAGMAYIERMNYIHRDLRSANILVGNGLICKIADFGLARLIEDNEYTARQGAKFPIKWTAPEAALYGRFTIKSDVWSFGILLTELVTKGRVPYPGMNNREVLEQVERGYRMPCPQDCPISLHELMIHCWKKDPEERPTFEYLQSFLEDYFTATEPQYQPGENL
# Assay: as above
row,Sequence,phosphorylation enrichment
1,PLEGKYEWQEV [CDKN1B_Y74],0.379
2,AKVKPYVNGTS [IBTK_Y1064],0.486
3,NLTVNYKKNLT [SQOR_Y259_I264T],0.608
4,LHAALYERKLL [TTLL5_Y542],1.12
5,TGSFTYEAVEL [MTMR14_Y462],2.21
6,VHNLDYYKKTT [FGFR3_Y647],0.39
7,HLELNYKEDEF [MME_Y502_Y497H_YF],0.557
8,ATPSQYMTFLH [DYNC2H1_Y2872_R2871Q],3.39
9,FNVLQYVVPEV [EIF3A_Y382],0.629
10,LDLSFYHTSSS [EMD_Y182_P183H_YF],0.553
11,PLFGEYFTLQI [TP53_Y327_D324Y_YF],6.77
12,DMGAQYAAASP [ARID1B_Y483],0.411
13,AAVDTYCRHNY [HLA-DRB1_Y107],0.548
14,IRKDLYANNVM [ACTA1_Y296],0.488
15,SPPILYSFFLD [FCRL6_Y239_YF],2.28
16,SARFRYLVAEK [LDHB_Y173_M175V],0.415
17,CEHRGHLYLAI [TEK_Y897_Y897H],0.908

row,Sequence,phosphorylation enrichment
1,MSFDRYMAICH [OR2A5_Y123_YF],0.494
2,DYYDLYGGQKF [PTPN11_Y66_E69Q],7.93
3,YIGVTYKNEED [PDGFRA_Y993],0.528
4,EKQLLYLENKT [FRK_Y132_S133L],0.467
5,NIQKKYYRAIL [CHD7_Y1217],0.443
6,AGQEDYDRLRS [RHOA_Y66_P71S],0.555
7,WCSNDYLGMSR [ALAS2_Y199],0.551
8,TVLWRYTGTRP [UGT1A1_Y337],0.411
9,FQGGTYSKAST [FGG_Y380_YF],0.372
10,SAGSSYSISGI [PAX5_Y179],0.412
11,ICGVSYDEFRF [CFTR_Y512_F508C_YF],0.764
12,VTAVAYRLAEQ [HK1_Y461],0.473
13,RPPELYALMSD [ZAP70_Y569_C564R],1.28
14,KRAIGHFSATS [FAM120A_Y327_Y327H_YF],0.351
15,CTTIDYNFMCN [TP53_Y234_H233D_YF],0.527
16,KLVQLYVVCTK [BTK_Y461_G462V],0.416

# Biological target: Fes (UniProt P07332)
# Sequence (P07332 whole entry, looked up): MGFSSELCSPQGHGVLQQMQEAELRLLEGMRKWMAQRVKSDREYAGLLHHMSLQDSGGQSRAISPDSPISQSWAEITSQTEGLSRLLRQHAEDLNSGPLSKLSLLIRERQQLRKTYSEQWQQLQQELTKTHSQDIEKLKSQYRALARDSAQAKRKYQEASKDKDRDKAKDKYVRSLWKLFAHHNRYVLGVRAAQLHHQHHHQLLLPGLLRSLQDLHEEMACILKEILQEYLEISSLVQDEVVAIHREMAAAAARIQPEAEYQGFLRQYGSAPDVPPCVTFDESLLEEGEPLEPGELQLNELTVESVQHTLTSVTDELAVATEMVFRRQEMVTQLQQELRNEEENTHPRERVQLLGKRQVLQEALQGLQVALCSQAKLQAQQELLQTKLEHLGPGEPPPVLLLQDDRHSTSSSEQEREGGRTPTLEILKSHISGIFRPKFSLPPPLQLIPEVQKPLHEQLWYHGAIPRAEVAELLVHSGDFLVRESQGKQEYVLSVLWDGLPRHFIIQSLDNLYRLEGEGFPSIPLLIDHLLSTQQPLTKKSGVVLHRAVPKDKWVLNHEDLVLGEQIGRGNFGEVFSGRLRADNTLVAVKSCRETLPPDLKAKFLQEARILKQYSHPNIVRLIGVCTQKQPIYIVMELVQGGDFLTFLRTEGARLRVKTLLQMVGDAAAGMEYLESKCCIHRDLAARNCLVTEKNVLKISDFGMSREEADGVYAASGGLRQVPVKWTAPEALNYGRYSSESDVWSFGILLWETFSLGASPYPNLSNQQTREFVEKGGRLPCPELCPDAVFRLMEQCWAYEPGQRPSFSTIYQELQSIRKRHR
# Assay: as above
row,Sequence,phosphorylation enrichment
1,PLEGKYEWQEV [CDKN1B_Y74],1.49
2,AKVKPYVNGTS [IBTK_Y1064],0.559
3,NLTVNYKKNLT [SQOR_Y259_I264T],1.24
4,LHAALYERKLL [TTLL5_Y542],1.91
5,TGSFTYEAVEL [MTMR14_Y462],1.24
6,VHNLDYYKKTT [FGFR3_Y647],0.624
7,HLELNYKEDEF [MME_Y502_Y497H_YF],0.967
8,ATPSQYMTFLH [DYNC2H1_Y2872_R2871Q],0.791
9,FNVLQYVVPEV [EIF3A_Y382],1.32
10,LDLSFYHTSSS [EMD_Y182_P183H_YF],1.19
11,PLFGEYFTLQI [TP53_Y327_D324Y_YF],2.8
12,DMGAQYAAASP [ARID1B_Y483],0.71
13,AAVDTYCRHNY [HLA-DRB1_Y107],0.914
14,IRKDLYANNVM [ACTA1_Y296],0.863
15,SPPILYSFFLD [FCRL6_Y239_YF],1.14
16,SARFRYLVAEK [LDHB_Y173_M175V],0.635
17,CEHRGHLYLAI [TEK_Y897_Y897H],1.28

row,Sequence,phosphorylation enrichment
1,MSFDRYMAICH [OR2A5_Y123_YF],1.08
2,DYYDLYGGQKF [PTPN11_Y66_E69Q],1.02
3,YIGVTYKNEED [PDGFRA_Y993],1.05
4,EKQLLYLENKT [FRK_Y132_S133L],0.985
5,NIQKKYYRAIL [CHD7_Y1217],0.543
6,AGQEDYDRLRS [RHOA_Y66_P71S],1.38
7,WCSNDYLGMSR [ALAS2_Y199],0.845
8,TVLWRYTGTRP [UGT1A1_Y337],1.01
9,FQGGTYSKAST [FGG_Y380_YF],0.544
10,SAGSSYSISGI [PAX5_Y179],0.516
11,ICGVSYDEFRF [CFTR_Y512_F508C_YF],1.5
12,VTAVAYRLAEQ [HK1_Y461],0.792
13,RPPELYALMSD [ZAP70_Y569_C564R],2.19
14,KRAIGHFSATS [FAM120A_Y327_Y327H_YF],0.42
15,CTTIDYNFMCN [TP53_Y234_H233D_YF],1.27
16,KLVQLYVVCTK [BTK_Y461_G462V],1.16
